B1: Nibrin (Homo sapiens), O60934 (parent)
chain: MWKLLPAAGPAGGEPYRLLTGVEYVVGRKNCAILIENDQSISRNHAVLTANFSVTNLSQTDEIPVLTLKDNSKYGTFVNEEKMQNGFSRTLKSGDGITFGVFGSKFRIEYEPLVACSSCLDVSGKTALNQAILQLGGFTVNNWTEECTHLVMVSVKVTIKTICALICGRPIVKPEYFTEFLKAVESKKQPPQIESFYPPLDEPSIGSKNVDLSGRQERKQIFKGKTFIFLNAKQHKKLSSAVVFGGGEARLITEENEEEHNFFLAPGTCVVDTGITNSQTLIPDCQKKWIQSIMDMLQRQGLRPIPEAEIGLAVIFMTTKNYCDPQGHPSTGLKTTTPGPSLSQGVSVDEKLMPSAPVNTTTYVADTESEQADTWDLSERPKEIKVSKMEQKFRMLSQDAPTVKESCKTSSNNNSMVSNTLAKMRIPNYQLSPTKLPSINKSKDRASQQQQTNSIRNYFQPSTKKRERDEENQEMSSCKSARIETSCSLLEQTQPATPSLWKNKEQHLSENEPVDTNSDNNLFTDTDLKSIVKNSASKSHAAEKLRSNKKREMDDVAIEDEVLEQLFKDTKPELEIDVKVQKQEEDVNVRKRPRMDIETNDTFSDEAVPESSKISQENEIGKKRELKEDSLWSAKEISNNDKLQDDSEMLPKKLLLTEFRSLVIKNSTSRNPSGINDDYGQLKNFKKFKKVTYPGAGKLPHIIGGSDLIAHHARKNTELEEWLRQEMEVQNQHAKEESLADDLFRYNPYLKRRR

Variants of: B1
Conditions: with pk3cb_human PIK3CB

Variant | effect of a mutation on the interaction
K653A;L654A;L655A;L656A | decreasing interaction
S661A;L662A;V663A | decreasing interaction
